Experimental findings from patent publication US20240116985A1, “STAPLED PEPTIDES AND METHODS THEREOF” (priority 2020, published 2024) are described below.

Starred links: 1 amine or outer side, 2 acyl side, 3 side chain; linkers in the order of their positions; H or OH if unused. Positions of bridges follow the written chain, without caps; N, C: chain ends. Non-standard residues stand in square brackets, D forms with d. Primed or numbered codes have the meaning given here. PyrS2″ = (S)-3-amino-1-((pent-4-en-1-yloxy)carbonyl)pyrrolidine-3-carboxylic acid (stapling residue), C=CCCCOC(=O)N1CC[C@@](N[*:1])(C(=O)[*:2])C1; SeN″ = (S)-5-(((allyloxy)carbonyl)(methyl)amino)-2-amino-2-methylpentanoic acid (stapling residue), C=CCOC(=O)N(C)CCC[C@](C)(N[*:1])C(=O)[*:2]; B5(4) = 2,2-bis(4-pentenyl)glycine = 2-amino-2-(pent-4-en-1-yl)hept-6-enoic acid (stitching residue), C=CCCCC(CCCC=C)(N[*:1])C(=O)[*:2]; TfeGA = (S)-2-amino-3-((carboxymethyl)(2,2,2-trifluoroethyl)amino)propanoic acid, O=C([C@H](CN(CC(=O)[*:3])CC(F)(F)F)N[*:1])[*:2]; B5(12) = 2-amino-2-(pent-4-en-1-yl)hept-6-enoic acid (two olefin side chains), C=CCCCC(CCCC=C)(N[*:1])C(=O)[*:2]; B5(19) = 2-amino-2-(pent-4-en-1-yl)hept-6-enoic acid (bis(4-pentenyl)glycine), C=CCCCC(CCCC=C)(N[*:1])C(=O)[*:2]; B5(3) = 2,2-bis(4-pentenyl)glycine (stitching residue), C=CCCCC(CCCC=C)(N[*:1])C(=O)[*:2]; B5 = 2-amino-2-(pent-4-en-1-yl)hept-6-enoic acid, C=CCCCC(CCCC=C)(N[*:1])C(=O)[*:2]; Phe(3-CONH2) = NC(=O)c1cccc(C[C@H](N)C(=O)O)c1; Phe(3-COOH) = N[C@@H](Cc1cccc(C(=O)O)c1)C(=O)O; Phe(3-Cl) = N[C@@H](Cc1cccc(Cl)c1)C(=O)O; Phe(3-OMe) = COc1cccc(C[C@H](N)C(=O)O)c1; Phe(3-F) = N[C@@H](Cc1cccc(F)c1)C(=O)O; Phe(3-Me) = Cc1cccc(C[C@H](N)C(=O)O)c1; Ala(cPent) = N[C@@H](CC1CCCC1)C(=O)O; Bta = N[C@@H](Cc1csc2ccccc12)C(=O)O; Lys(iPr) = CC(C)NCCCC[C@H](N)C(=O)O; αAllylPro = C=CC[C@@]1(C(=O)O)CCCN1; tBuAla = CC(C)(C)C[C@H](N)C(=O)O; 2Pal = N[C@@H](Cc1ccccn1)C(=O)O; 3Pal = N[C@@H](Cc1cccnc1)C(=O)O; 4Pal = N[C@@H](Cc1ccncc1)C(=O)O; 2Thi = N[C@@H](Cc1cccs1)C(=O)O; 3Thi = N[C@@H](Cc1ccsc1)C(=O)O; Cha = N[C@@H](CC1CCCCC1)C(=O)O; S8 = C=CCCCCCC[C@](C)(N)C(=O)O; PyrS2(4) = not defined here; hSer = N[C@@H](CCO)C(=O)O; Nle = CCCC[C@H](N)C(=O)O; Aib = CC(C)(N)C(=O)O

Experiment [1] addresses full-length beta-Catenin (Uniprot ID P35222) (Homo sapiens (Human)) (UniProt P35222). The experiment is described as follows: fluorescence polarization competition; 10 nM full-length beta-catenin + 10 nM 5FAM-TCF4(10-53) probe, peptide titrated. On the technique in general: Polarisation of emitted light reports the rotation of a fluorescent probe.
Target sequence in this assay (P35222 2-781 limits assumed): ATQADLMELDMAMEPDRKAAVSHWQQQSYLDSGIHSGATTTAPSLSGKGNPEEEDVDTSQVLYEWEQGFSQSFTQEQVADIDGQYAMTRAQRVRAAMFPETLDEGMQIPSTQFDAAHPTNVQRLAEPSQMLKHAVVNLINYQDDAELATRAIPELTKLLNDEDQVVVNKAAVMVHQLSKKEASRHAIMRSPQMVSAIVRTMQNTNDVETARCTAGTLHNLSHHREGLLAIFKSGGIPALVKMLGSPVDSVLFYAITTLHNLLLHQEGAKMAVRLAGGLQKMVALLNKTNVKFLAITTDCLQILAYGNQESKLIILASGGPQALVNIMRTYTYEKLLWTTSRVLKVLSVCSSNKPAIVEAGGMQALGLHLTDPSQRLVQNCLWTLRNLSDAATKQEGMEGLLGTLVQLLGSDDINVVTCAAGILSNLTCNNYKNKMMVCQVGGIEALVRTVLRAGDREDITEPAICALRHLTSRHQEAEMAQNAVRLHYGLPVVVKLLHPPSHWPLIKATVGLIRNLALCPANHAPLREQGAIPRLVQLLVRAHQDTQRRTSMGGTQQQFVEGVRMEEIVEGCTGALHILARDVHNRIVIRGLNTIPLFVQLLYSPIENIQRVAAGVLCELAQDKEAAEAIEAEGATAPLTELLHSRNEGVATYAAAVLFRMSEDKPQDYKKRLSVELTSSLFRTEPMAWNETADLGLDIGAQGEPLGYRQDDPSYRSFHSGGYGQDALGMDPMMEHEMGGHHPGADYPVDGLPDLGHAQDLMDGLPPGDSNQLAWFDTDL
For experiment [2] the target is unchanged. The experiment is described as follows: fluorescence polarization competition; full-length beta-catenin with 5FAM-labeled TCF4 (residues 10-53) probe as competitor.
Target sequence in this assay (P35222 whole entry, the tested form may be a part): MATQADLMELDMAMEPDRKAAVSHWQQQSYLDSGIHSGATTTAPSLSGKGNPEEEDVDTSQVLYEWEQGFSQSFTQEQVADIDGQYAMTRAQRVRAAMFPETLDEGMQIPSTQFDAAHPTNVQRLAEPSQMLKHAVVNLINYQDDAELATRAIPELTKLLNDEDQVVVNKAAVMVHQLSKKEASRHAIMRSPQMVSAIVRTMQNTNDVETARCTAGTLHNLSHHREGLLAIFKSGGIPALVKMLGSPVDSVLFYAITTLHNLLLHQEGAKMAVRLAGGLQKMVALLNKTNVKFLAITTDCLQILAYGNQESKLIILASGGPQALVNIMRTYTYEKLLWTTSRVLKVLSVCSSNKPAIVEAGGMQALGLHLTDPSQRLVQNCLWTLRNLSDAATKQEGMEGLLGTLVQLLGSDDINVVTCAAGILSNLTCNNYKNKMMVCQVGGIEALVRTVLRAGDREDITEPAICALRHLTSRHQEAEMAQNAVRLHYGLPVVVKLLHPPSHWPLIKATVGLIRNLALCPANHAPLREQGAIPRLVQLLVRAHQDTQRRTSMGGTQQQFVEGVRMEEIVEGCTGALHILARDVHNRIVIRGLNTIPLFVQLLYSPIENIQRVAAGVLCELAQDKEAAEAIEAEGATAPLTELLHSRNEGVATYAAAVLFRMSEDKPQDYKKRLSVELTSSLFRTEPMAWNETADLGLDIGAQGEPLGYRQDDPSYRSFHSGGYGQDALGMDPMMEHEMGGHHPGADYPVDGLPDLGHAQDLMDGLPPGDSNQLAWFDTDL
The target is the same in experiment [3]. The experiment is described as follows: fluorescence polarization competition; 10 nM full-length beta-catenin with 10 nM 5FAM-labeled TCF4 residues 10-53 probe (competitor displaced).
Target sequence in this assay (P35222 2-781 limits assumed): as the sequence (P35222 2-781 limits assumed) above
Experiment [4] shares this target. The experiment is described as follows: fluorescence polarization competition; 10 nM full-length beta-catenin, competitor 10 nM 5FAM-TCF4(10-53).
Target sequence in this assay (P35222 whole entry, the tested form may be a part): as the sequence (P35222 whole entry, the tested form may be a part) above
For experiment [5] the target is unchanged. Kind of experiment: fluorescence polarization competition; full-length beta-catenin, 5FAM-TCF4(10-53) probe displaced.
Target sequence in this assay (P35222 whole entry, the tested form may be a part): as above

As for Ac-[αAllylPro]DA[B5(4)]D[2Thi]AAFV[S8][Phe(3-F)][Bta]Q-NH2 (staple 1-4, 4-11) [I-402], the EC50 in experiment [1] was 5000 nM. The molecule further gave a concentration for half-maximal inhibition (IC50) in experiment [2] of 5000 nM.

For Ac-[αAllylPro]N[Cha][B5(19)]D[hSer][Lys(iPr)]AFN[PyrS2″]F[Bta][hSer]-NH2 (staple 1-4, 4-11) [I-1933], the 50% inhibitory concentration (IC50) in experiment [3] came out at 154 nM.

As for Ac-[αAllylPro]D[Nle][B5(3)]DEAAFA[S8]F[Bta]Q-NH2 (staple 1-4, 4-11) [I-411], the EC50 in experiment [1] came out at 189 nM. For the same molecule, in experiment [2], the 50% inhibitory concentration (IC50) is 189 nM.

As to Ac-[αAllylPro]DA[B5]DEAAFV[S8][Ala(cPent)][Bta]Q-NH2 (staple 1-4, 4-11) [I-393], the concentration for a half-maximal effect (EC50) in experiment [4] came out at 1950 nM. In experiment [2], the concentration for half-maximal inhibition (IC50) was 1950 nM.

B1: I-387 (peptide)
peptide: Ac-[αAllylPro]DA[B5]DEAA[2Pal]V[S8]F[Bta]Q-NH2
modifications: staple 1-4, 4-11; not fully specified; printed as Ac-PL3-Asp-Ala-B5-Asp-Glu-Ala-Ala-2pyrA-Val-S8-Phe-BztA-Gln-NH2
In experiment [4], B1 displayed an EC50 of 2620 nM. In addition, in experiment [2], the IC50 was determined as 2620 nM.

Consider Ac-[αAllylPro]N[Cha][B5(19)]DQ[Lys(iPr)]AFN[PyrS2″][Phe(3-OMe)][Bta][hSer]-NH2 (staple 1-4, 4-11) [I-1930], for which the half-inhibitory concentration (IC50) in experiment [3] came out at 1560 nM. This lies in the single-digit micromolar range.

B2: I-386 (peptide)
peptide: Ac-[αAllylPro]DA[B5]DEAA[2Pal]V[S8]F[Bta]Q-NH2
modifications: staple 1-4, 4-11; not fully specified; printed as Ac-PL3-Asp-Ala-B5-Asp-Glu-Ala-Ala-2pyrA-Val-S8-Phe-BztA-Gln-NH2
Molecule B2 showed a half-maximal effective concentration (EC50) in experiment [4] of 5000 nM. This molecule also had an IC50 in experiment [2] of 5000 nM.

Consider Ac-[αAllylPro]N[Cha][B5(19)]DQ[Lys(iPr)]AFN[PyrS2″][Phe(3-Cl)][Bta][hSer]-NH2 (staple 1-4, 4-11) [I-1928], for which, in experiment [3], the IC50 was 887 nM.

Molecule Ac-[αAllylPro]DA[B5(4)]DEAAFV[S8][2Pal][Bta]Q-NH2 (staple 1-4, 4-11; also: later eluting staple isomer) [I-384] came in with an IC50 in experiment [2] of 177 nM.

For the molecule Ac-[αAllylPro]DA[B5(3)]D[TfeGA]AA[Phe(3-Me)]Q[SeN″][Phe(3-F)][Bta]Q-NH2 (staple 1-4, 4-11) [I-405], the EC50 in experiment [1] turned out to be 3820 nM. This molecule also came in with an IC50 in experiment [2] of 3820 nM.

B3: I-1916 (peptide)
peptide: Ac-[αAllylPro]D[tBuAla][B5(4)]D[Phe(3-COOH)]HAFL[PyrS2(4)][3Thi][Bta]A-NH2
modifications: staple 1-4, 4-11; not fully specified; printed as Ac-PL3-Asp-Npg-B5-Asp-3COOHF-His-Ala-Phe-Leu-PyrS2-3Thi-BztA-Ala-NH2; reading uncertain
As for B3, the IC50 in experiment [3] turned out to be 8 nM. This counts as single-digit nanomolar.

As for Ac-[αAllylPro]DA[B5(4)]DEAAFV[S8][Phe(3-Me)][Bta]Q-NH2 (staple 1-4, 4-11) [I-395], the half-maximal effective concentration (EC50) in experiment [4] came out at 5000 nM. Besides, the IC50 in experiment [2] is 5000 nM.

On to Ac-[αAllylPro]DA[B5(4)]DEAA[2Thi]Q[S8][Phe(3-F)][Bta]Q-NH2 (staple 1-4, 4-11) [I-401], for which the EC50 in experiment [1] worked out at 134 nM. For the same molecule, the IC50 in experiment [2] was 134 nM.

Ac-[αAllylPro]N[Cha][B5(19)]DQ[Lys(iPr)]A[Phe(3-CONH2)]N[PyrS2″]F[Bta][hSer]-NH2 (staple 1-4, 4-11) [I-1925] registered a 50% inhibitory concentration (IC50) in experiment [3] of 475 nM.

As for Ac-[αAllylPro]DA[B5]DEAA[Ala(cPent)]V[S8]F[Bta]Q-NH2 (staple 1-4, 4-11) [I-392], the 50% effective concentration (EC50) in experiment [4] is 5000 nM. In experiment [2], this molecule registered an IC50 of 5000 nM.

Ac-[αAllylPro]D[tBuAla][B5(3)]NDAAFN[PyrS2″][3Thi][Bta]Q-NH2 (staple 1-4, 4-11) [Ac-PL3-Asp-Npg-B5-Asn-Asp-Ala-Ala-Phe-Asn-PyrS2-3Thi-BztA-Gln-NH2] displayed an IC50 in experiment [5] of 32 nM. This lies in the double-digit nanomolar range.

B4: I-1924 (peptide)
peptide: Ac-[αAllylPro]N[Cha][B5(12)]DQ[Lys(iPr)]A[Phe(3-Cl)]N[PyrS2(4)]F[Bta][hSer]-NH2
modifications: staple 1-4, 4-11; not fully specified; printed as Ac-PL3-Asn-Cha-B5-Asp-Gln-iPrLys-Ala-3C1F-Asn-PyrS2-Phe-BztA-Hse-NH2; reading uncertain
For the molecule B4, the half-inhibitory concentration (IC50) in experiment [3] stood at 1610 nM. This lies in the single-digit micromolar range.

B5: I-1914 (peptide)
peptide: Ac-[αAllylPro]D[tBuAla][B5(12)]D[Phe(3-COOH)][Aib]AFL[PyrS2(4)][3Thi][Bta]F-NH2
modifications: staple 1-4, 4-11; not fully specified; printed as Ac-PL3-Asp-Npg-B5-Asp-3COOHF-Aib-Ala-Phe-Leu-PyrS2-3Thi-BztA-Phe-NH2; reading uncertain
Molecule B5 came in with an IC50 in experiment [3] of 52 nM.

Consider Ac-[αAllylPro]DA[B5(4)]D[TfeGA]AA[Phe(3-Me)]Q[S8][Phe(3-F)][Bta]Q-NH2 (staple 1-4, 4-11) [I-404], for which the 50% effective concentration (EC50) in experiment [1] is 1850 nM. Also, the half-maximal inhibitory concentration (IC50) in experiment [2] came out at 1850 nM.

B6: I-1922 (peptide)
peptide: Ac-[αAllylPro]N[Cha][B5(12)]DQ[Lys(iPr)]AF[hSer][PyrS2(4)]F[Bta][hSer]-NH2
modifications: staple 1-4, 4-11; not fully specified; printed as Ac-PL3-Asn-Cha-B5-Asp-Gln-iPrLys-Ala-Phe-Hse-PyrS2-Phe-BztA-Hse-NH2; reading uncertain
Turning to B6, in experiment [3], the IC50 was found to be 457 nM.

In the case of Ac-[αAllylPro]N[Cha][B5(19)]DQ[Lys(iPr)]AFN[PyrS2″][Phe(3-CONH2)][Bta][hSer]-NH2 (staple 1-4, 4-11) [I-1929], the IC50 in experiment [3] stood at 74 nM.

Take Ac-[αAllylPro]N[Cha][B5(19)]DQ[Lys(iPr)]AFN[PyrS2″][3Pal][Bta][hSer]-NH2 (staple 1-4, 4-11) [I-1927]: the IC50 in experiment [3] was 5140 nM. This IC50 is about 69-fold higher than that of the molecule before.

For the molecule Ac-[αAllylPro]DI[B5(3)]DEAAFQ[S8]F[Bta]-NH2 (staple 1-4, 4-11; also: staple isomer composition, later eluting HPLC peak) [I-409], the 50% effective concentration (EC50) in experiment [1] came to 70 nM. In experiment [2], the half-maximal inhibitory concentration (IC50) was determined as 70 nM.

B7: I-1923 (peptide)
peptide: Ac-[αAllylPro]N[Cha][B5(12)]DQ[Lys(iPr)]A[3Pal]N[PyrS2(4)]F[Bta][hSer]-NH2
modifications: staple 1-4, 4-11; not fully specified; printed as Ac-PL3-Asn-Cha-B5-Asp-Gln-iPrLys-Ala-3PyrA-Asn-PyrS2-Phe-BztA-Hse-NH2; reading uncertain
In experiment [3], B7 showed a concentration for half-maximal inhibition (IC50) of 10000 nM.

For Ac-[αAllylPro]N[Cha][B5(19)]DQ[Lys(iPr)]SFN[PyrS2″]F[Bta][hSer]-NH2 (staple 1-4, 4-11) [I-1931], in experiment [3], the IC50 came to 1560 nM.

Consider Ac-[αAllylPro]DA[B5(4)]DEAAFV[S8][4Pal][Bta]Q-NH2 (staple 1-4, 4-11) [I-385], for which the EC50 in experiment [4] came out at 3150 nM. Further, in experiment [2], the half-maximal inhibitory concentration (IC50) was 3150 nM.

B8: I-1918 (peptide)
peptide: Ac-[αAllylPro]D[tBuAla][B5(4)]D[Phe(3-COOH)]QAFL[PyrS2(4)][3Thi][Bta]A-NH2
modifications: staple 1-4, 4-11; not fully specified; printed as Ac-PL3-Asp-Npg-B5-Asp-3COOHF-Gln-Ala-Phe-Leu-PyrS2-3Thi-BztA-Ala-NH2; reading uncertain
Consider B8, for which the IC50 in experiment [3] worked out at 5 nM.

With Ac-[αAllylPro]N[Cha][B5(19)]DQ[Lys(iPr)]A[Phe(3-OMe)]N[PyrS2″]F[Bta][hSer]-NH2 (staple 1-4, 4-11) [I-1926], in experiment [3], the IC50 is 417 nM.

Ac-[αAllylPro]D[tBuAla][B5(3)]NDAAFL[PyrS2″][3Thi][Bta]Q-NH2 (staple 1-4, 4-11) [Ac-PL3-Asp-Npg-B5-Asn-Asp-Ala-Ala-Phe-Leu-PyrS2-3Thi-BztA-Gln-NH2] gave an IC50 in experiment [5] of 40 nM.

Regarding Ac-[αAllylPro]DI[B5(3)]DEAAFQ[S8]F[Bta]-NH2 (staple 1-4, 4-11; also: staple isomer composition, earlier eluting HPLC peak) [I-408], the 50% effective concentration (EC50) in experiment [1] came out at 120 nM. The molecule further gave an IC50 in experiment [2] of 120 nM.

Usually EC50 stands for the concentration that produces a half-maximal response. What is called IC50 is the concentration that inhibits the measured activity by half. A lower IC50 goes with greater potency in that assay.
